Measured values: the RNAGym collection of RNA variant scans (doi:10.7554/elife.80360)

B1: HDV Ribozyme (parent)
chain: GGCCGGCAUGGUCCCAGCCUCCUCGCUGGCGCCGGCUGGGCAACAUUCCGAGGGGACCGUCCCCUCGGUAAUGGCGAAUGGGACCCA

Variants of: B1
Assay: self-cleavage, relative activity (ratio to wild type); higher = more cleavage; co-transcriptional

Variant | self-cleavage
C61U A87U | 0.959
C62U U79A | 0.95
C64G C75U | 0.163
U60C U79A | 1.23
U60C U79G | 0.554
C62U A70G | 1.09
C61U G74C | 0.253
C61U G74A | 0.463
U60G A77G | 1.09
U65A A78G | 0.831
C64G C85A | 0.956
C64G C85U | 1.17
C61U G82U | 0.518
C62G U69G | 0.804
C62G U69A | 1.04
C66A C86G | 1.12
C66A G82U | 0.36
C66A G82C | 0.34
C63U C66G | 0.88
U60G U65C | 1.17
U60G U65A | 0.95
C66A C75A | 0.248
U65A G74U | 0.428
U65C G82C | 0.252

Variant | self-cleavage
U60G U72A | 0.458
C63G G76U | 0.978
C64G A70U | 0.978
U60C C66U | 0.997
C66A A77C | 0.237
C64A A83G | 0.857
C66A U72C | 0.229
C61G C84U | 0.544
C61G C84G | 0.386
U65A C86G | 1.12
C64A A71G | 0.529
C61G U79G | 0.437
U65G C66A | 0.9
C61G A70U | 1.04
C61A C86A | 0.897
C61A C86U | 1.01
C62G C64G | 0.427
C62G C64U | 0.485
C62G C64A | 0.608
C63A U79G | 0.682
C64U A87U | 0.804
C62U C86U | 0.845
C62U U65C | 0.988
C62U U65G | 0.631

Variant | self-cleavage
U60C G82U | 0.495
C63A A83C | 0.271
U65G G81A | 0.282
C64A C86G | 0.923
C64A C86U | 0.886
C62G U65A | 0.166
C61A A78G | 0.678
C63U G81U | 0.361
U65C A78G | 0.731
C63G U69G | 0.731
C63G U69C | 0.567
C61G A71C | 0.787
C62G G82C | 0.204
C62U U69C | 1.07
C63G G68C | 0.232
C62A G81U | 0.266
U65C U69C | 1.02
U65C G80A | 0.356
U65C G68U | 0.831
U60C U72C | 0.539
C64G A71C | 0.68
C61U G80U | 0.217
C61U G80A | 0.242
C61G U65C | 1.24

Variant | self-cleavage
U65G A78U | 0.569
C62A C66U | 0.597
C64U G80U | 0.247
C64U G80A | 0.397
C62G G76C | 0.937
C62G G76U | 1.03
U60G U69C | 1.09
C63G C86U | 0.816
C63G C86A | 0.95
U65A C75A | 0.185
C63U C85G | 0.959
C61U A70U | 1.02
C61G U69C | 0.96
C63G A87U | 0.71
C64U U79A | 0.597
C61G G76U | 1.16
C63G G73A | 0.424
U60G G73C | 0.323
U60G G73U | 0.298
C64U G74U | 0.569
C64U G74C | 0.128
C63U G73C | 0.618
C63A C84U | 0.717
C63A G68C | 0.495

Variant | self-cleavage
U65A G82U | 0.217
C61U G67C | 0.78
C61U G67A | 0.562
C63G C64G | 0.692
C61G C66U | 1.08
C62G A83U | 0.17
C62G A83G | 0.404
C61G G73A | 0.475
C62A G82C | 0.271
C62A G82U | 0.295
C66A G81U | 0.227
U65A A70C | 0.643
C62G C86G | 1.14
C61A G73C | 0.415
C61U A83U | 0.456
C62U C66U | 0.953
C64G U79G | 0.506
C64G U79A | 0.692
C61A C75A | 0.136
C61U A71C | 0.746
C61A A70G | 0.812
C63U U69A | 0.975
C62U G76C | 0.941
C62U G82A | 0.338

Variant | self-cleavage
C62U G82C | 0.242
U65C G81C | 0.227
U60G U79A | 0.665
U60G C61G | 0.872
C63A A71C | 0.525
C61A U79C | 0.506
C64U A77U | 0.674
C64U A77C | 0.318
C64A G67U | 0.425
U65C C85U | 0.997
U65C C85G | 0.807
C66A C85U | 0.985
C62U G68U | 0.68
C62U G68C | 0.818
C61G G67C | 0.945
C61G G67U | 0.649
C64U A71U | 1.12
C64U A71G | 1.07
U60C G67U | 1.03
C64G U72G | 0.745
C61A A77G | 1.03
C61A A77U | 0.389
U65G A70C | 0.601
C63A A77G | 0.734

Variant | self-cleavage
C64U A83G | 1.02
C64U C86A | 0.66
C64A C85A | 0.623
C63G G74U | 0.529
C66A A71U | 0.692
C62G G67U | 0.423
C64A A77G | 0.703
C64A A77U | 0.449
U65A U79G | 0.492
U65A U79C | 0.467
C61A U69C | 0.906
C62A G76U | 1.08
C64A A87G | 0.902
C66A G80C | 0.0845
C63G C75U | 0.154
C62A G73U | 0.212
C61G C75G | 0.113
C61G C75A | 0.166
C63U G74U | 0.583
U65G G74A | 0.3
C61G A78G | 0.831
C63U U65C | 1.14
U60C C64A | 1.13
